Measured values from US6350731.
Values belong to the binder of their own block, whether it stands above or below them. Where no end group is shown, it is not given here.

Columns and labels:
[1] = target: 2 DMB; experiment: CELIA on monoclonal 2 DMB; coated antigen not given
[2] = target: 4 DMB; experiment: CELIA on monoclonal 4 DMB; coated antigen not given
[3] = target: 9 DB-1; experiment: CELIA on monoclonal 9 DB-1; coated antigen not given
[4] = target: 13 DB-1; experiment: CELIA on monoclonal 13 DB-1; coated antigen not given
[5] = target: 17 DB-1; experiment: CELIA on monoclonal 17 DB-1; coated antigen not given
[6] = target: 19 DB-1; experiment: CELIA on monoclonal 19 DB-1; coated antigen not given
[7] = target: 21 DB-1; experiment: CELIA on monoclonal 21 DB-1; coated antigen not given
[8] = target: 22 DB-1; experiment: CELIA on monoclonal 22 DB-1; coated antigen not given
[9] = target: Rb 37; experiment: competitive ELISA on antiserum Rb 37; coated antigen not given
[10] = target: Rb 38; experiment: competitive ELISA on antiserum Rb 38; coated antigen not given
[11] = target: Rb 39; experiment: competitive ELISA on antiserum Rb 39; coated antigen not given
[12] = target: Rb 65; experiment: competitive ELISA on antiserum Rb 65; coated antigen not given
[13] = target: Rb 66; experiment: competitive ELISA on antiserum Rb 66; coated antigen not given
[14] = target: Rb 109; experiment: competitive ELISA on antiserum Rb 109; coated antigen not given
[15] = target: Rb 112; experiment: competitive ELISA on antiserum Rb 112; coated antigen not given
[16] = target: Rb 78; experiment: competitive ELISA on antiserum Rb 78; coated antigen not given
[17] = target: Rb 67; experiment: competitive ELISA on antiserum Rb 67; coated antigen not given
[18] = target: Rb 68; experiment: competitive ELISA on antiserum Rb 68; coated antigen not given
[19] = target: 10 DB-1; experiment: CELIA on monoclonal 10 DB-1; coated antigen not given
[20] = target: 12 DB-1; experiment: CELIA on monoclonal 12 DB-1; coated antigen not given

- IC50 [1]: 2000 nM
- IC50 [2]: 150 nM
- IC50 [3]: 1200 nM
- IC50 [4]: 400 nM
- IC50 [5]: 3000 nM
- IC50 [6]: 18 nM
- IC50 [7]: 30 nM
- IC50 [8]: 25 nM
- IC50 [9]: 10 nM
- IC50 [10]: 74 nM
- IC50 [11]: 2 nM
- IC50 [12]: 3 nM
- IC50 [13]: < 2 nM
- IC50 [14]: 4 nM
- IC50 [15]: 3 nM
B1: GP10 (peptide)
peptide: Ac-ISRRLIDRTNANFLVWPPC

- IC50 [16]: 100 nM
B2: GP21a (peptide)
peptide: RKIEIVRKKPIFKKATV

- IC50 [17]: 2 nM
- IC50 [18]: < 2 nM
B3: GP8 (peptide)
peptide: Ac-RKIEIVRKKC

- IC50 [1]: 2000 nM
- IC50 [2]: 150 nM
- IC50 [3]: 1000 nM
- IC50 [19]: 400 nM
- IC50 [20]: 2000 nM
- IC50 [4]: 200 nM
- IC50 [5]: 180 nM
- IC50 [6]: 18 nM
- IC50 [7]: 18 nM
- IC50 [8]: 20 nM
- IC50 [9]: 20 nM
- IC50 [10]: 150 nM
- IC50 [11]: 2 nM
- IC50 [12]: 3 nM
- IC50 [13]: < 2 nM
- IC50 [14]: 2 nM
- IC50 [15]: 2 nM
B4: GP4 (peptide)
peptide: Ac-ISRRLIDRTNANFLC
modifications: not fully specified; printed as Ac-25I-S-R-R-L-I-D-R-T-N-A-N-F-L38-C
